Assay results as given in patent publication US20240261333A1, “NOVEL TARGETS FOR ENHANCING ANTI-TUMOR IMMUNITY” (THE BROAD INSTITUTE, INC., priority 2021, published 2024).

T1: B3GNT2 (Homo sapiens, UniProt Q9NY97)
T1 construct: The respective ORFs of candidate genes [CD274 (NM_014143), MCL1 (NM_021960), JUNB (NM_002229), and B3GNT2 (NM_006577)] were synthesized; expressed in transfected cells; host or cells: A375 melanoma cells (lentiviral ORF overexpression)
T1 sequence (Q9NY97 1-397): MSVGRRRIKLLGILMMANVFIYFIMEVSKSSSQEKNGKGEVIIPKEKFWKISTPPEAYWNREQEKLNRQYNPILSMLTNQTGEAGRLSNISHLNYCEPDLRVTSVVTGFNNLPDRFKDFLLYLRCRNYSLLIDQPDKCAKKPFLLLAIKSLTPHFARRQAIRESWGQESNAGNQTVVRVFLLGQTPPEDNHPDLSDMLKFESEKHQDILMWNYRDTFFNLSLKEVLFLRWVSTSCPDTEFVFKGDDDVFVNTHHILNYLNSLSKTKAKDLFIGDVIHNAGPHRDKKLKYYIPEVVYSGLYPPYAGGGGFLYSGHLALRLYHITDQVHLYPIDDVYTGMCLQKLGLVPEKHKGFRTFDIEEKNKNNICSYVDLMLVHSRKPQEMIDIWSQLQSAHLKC


Molecular target: T1, B3GNT2
Test: Co-IP of FLAG-tagged B3GNT2 followed by mass spectrometry
Format: cell-based
Parameters: C-term IgG / C-term flag: unit not given here
Conditions: Co-IP followed by mass spectrometry of B3GNT2; for C-term flag / C-term IgG: C-term tag; for C-term flag / N-term FLAG: FLAG pull-down; for C-term IgG / N-term IgG: IgG pull-down; for N-term FLAG / N-term IgG: N-term tag
Summary of the method: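 FLAG-tagged B3GNT2 immunoprecipitated from cell lysate (HEPES, 1% Triton X-100, 150 mM NaCl) with anti-FLAG versus […], overnight at 4° C, then captured on Protein A/G magnetic beads for 4 h. Two biological replicates per condition. Peptides fractionated and analyzed by nano-LC on an Orbitrap Elite in data-dependent mode.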

C-term flag | C-term IgG | N-term FLAG | N-term IgG | Molecule
3 | 3 | 4 | 3 | MOV10 (protein) MPSKFSCRKLRETGQRFESFLAERGLDLETDRERLRTIYNHDFKPSYGTPAPGFSSMLYGMKIANLAFVTKTRVRFFKLDRWADVQLPEKRRIKPGSNISKQHRSLLARIFHDRAEYLHGKHGVDVEVQGPHEARDGQLLIHLDLNRKEVLTLRLRNGGSKPVTLTHLFPLCWTPQFVFYHGEQDLPCPLGPGESYELHIYCKTSIVGYFPATVLWELLGPGESGAEGAETFYIARFLAAVAHSPLAAQLKPTTPFKRPPRLTRNSVLTNRIEEGERPDRAKGYELELSLALGTYYPPILLRQLLPTLLQGPSIFTAPKEVAEIKAQLETTLKSRNYEVKLRLLLHLEELQMEHDIRHYDLDSVPMTWDPVDQNPRLLTLEVPGVAESRPSVLRGDHLFALLSSETQQDDPVTYKGFVHKVELDRVKLSFSTSLLSRFVDGLTFKVNFTFNRQPLRVQHRALELTGRWVLWPMLFPVASRGVSLLPSDVKFKLYDRSLESNPEQLQAMKHIVRGTTRPAPYIIFGPPGTGKTVTLVEAIKQVVKHLPKAHILACAPSNSGADLLCQRLRVHLPSSIYRLLAPSRDIRMVPEDIKTCCNWDAKKGEYVYPAKKHLQQYRVLITTLITASRLVSAQFPIDHFTHIFIDEAGHCMEPESLVAIAGLMDVKETGNPGGQLVLAGDPRQLGPVLRSPLALKHGLGYSLLERLLAYNSLYKKGPNGYDPQFITKLLRNYRSHPTILDIPNQLYYDGELQACADVVDRERFCRWEGLPQQGFPIIFHGVMGKDEREGNSPSFFNPEEAATVTSYLKQLLAPSSKKGKARLSPRNVGVISPYRKQVEKIRYCITKLDRELRGLDDIKDLKVGSVEEFQGQERSVILISTVRSSQSFVQLDLDFNLGFLKNPKRFNVAVTRAKALLIVVGNPLLLGHDPDWKTFLEFCKENGGYTGCPFPAKLDLQQGQDLLQGLSKLSPSTSGPRRHQNLPQEREGEGGLPLQVEPEWRNEL
3 | 0 | 0 | 0 | DNAJC3 (protein) GVNADVEKHLELGKKLLAAGQLADALSQFHAAVDGDPDNYIAYYRRATVFLAMGKSKAALPDLTKVIQLKMDFTAARLQRGHLLLKQGKLDEAEDDFKKVLKSNPSENEEKEAQSQLIKSDEMQRLRSQALNAFGSGDYTAAIAFLDKILEVCVWDAELRELRAECFIKEGEPRKAISDLKAASKLKNDNTEAFYKISTLYYQLGDHELSLSEVRECLKLDQDHKRCFAHYKQVKKLNKLIESAEELIRDGRYTDATSKYESVMKTEPSIAEYTVRSKERICHCFSKDEKPVEAIRVCSEVLQMEPDNVNALKDRAEAYLIEEMYDEAIQDYETAQEHNENDQQIREGLEKAQRLLKQSQKRDYYKILGVKRNAKKQEIIKAYRKLALQWHPDNFQNEEEKKKAEKKFIDIAAAKEVLSDPEMRKKFDDGEDPLDAESQQGGGGNPFHRSWNSWQGFNPFSSGGPFRFKFHFN
0 | 0 | 3 | 0 | GGCT (protein) MANSGCKDVTGPDEESFLYFAYGSNLLTERIHLRNPSAAFFCVARLQDFKLDFGNSQGKTSQTWHGGIATIFQSPGDEVWGVVWKMNKSNLNSLDEQEGVKSGMYVVIEVKVATQEGKEITCRSYLMTNYESAPPSPQYKKIICMGAKENGLPLEYQEKLKAIEPNDYTGKVSEEIEDIIKKGETQTL
3 | 3 | 4 | 3 | ATXN2 (protein) MRSAAAAPRSPAVATESRRFAAARWPGWRSLQRPARRSGRGGGGAAPGPYPSAAPPPPGPGPPPSRQSSPPSASDCFGSNGNGGGAFRPGSRRLLGLGGPPRPFVVLLLPLASPGAPPAAPTRASPLGARASPPRSGVSLARPAPGCPRPACEPVYGPLTMSLKPQQQQQQQQQQQQQQQQQQQQQQQPPPAAANVRKPGGSGLLASPAAAPSPSSSSVSSSSATAPSSVVAATSGGGRPGLGRGRNSNKGLPQSTISFDGIYANMRMVHILTSVVGSKCEVQVKNGGIYEGVFKTYSPKCDLVLDAAHEKSTESSSGPKREEIMESILFKCSDFVVVQFKDMDSSYAKRDAFTDSAISAKVNGEHKEKDLEPWDAGELTANEELEALENDVSNGWDPNDMFRYNEENYGVVSTYDSSLSSYTVPLERDNSEEFLKREARANQLAEEIESSAQYKARVALENDDRSEEEKYTAVQRNSSEREGHSINTRENKYIPPGQRNREVISWGSGRQNSPRMGQPGSGSMPSRSTSHTSDFNPNSGSDQRVVNGGVPWPSPCPSPSSRPPSRYQSGPNSLPPRAATPTRPPSRPPSRPSRPPSHPSAHGSPAPVSTMPKRMSSEGPPRMSPKAQRHPRNHRVSAGRGSISSGLEFVSHNPPSEAATPPVARTSPSGGTWSSVVSGVPRLSPKTHRPRSPRQNSIGNTPSGPVLASPQAGIIPTEAVAMPIPAASPTPASPASNRAVTPSSEAKDSRLQDQRQNSPAGNKENIKPNETSPSFSKAENKGISPVVSEHRKQIDDLKKFKNDFRLQPSSTSESMDQLLNKNREGEKSRDLIKDKIEPSAKDSFIENSSSNCTSGSSKPNSPSISPSILSNTEHKRGPEVTSQGVQTSSPACKQEKDDKEEKKDAAEQVRKSTLNPNAKEFNPRSFSQPKPSTTPTSPRPQAQPSPSMVGHQQPTPVYTQPVCFAPNMMYPVPVSPGVQPLYPIPMTPMPVNQAKTYRAVPNMPQQRQDQHHQSAMMHPASAAGPPIAATPPAYSTQYVAYSPQQFPNQPLVQHVPHYQSQHPHVYSPVIQGNARMMAPPTHAQPGLVSSSATQYGAHEQTHAMYACPKLPYNKETSPSFYFAISTGSLAQQYAHPNATLHPHTPHPQPSATPTGQQQSQHGGSHPAPSPVQHHQHQAAQALHLASPQQQSAIYHAGLAPTPPSMTPASNTQSPQNSFPAAQQTVFTIHPSHVQPAYTNPPHMAHVPQAHVQSGMVPSHPTAHAPMMLMTTQPPGGPQAALAQSALQPIPVSTTAHFPYMTHPSVQAHHQQQL
4 | 0 | 4 | 2 | LSM12 (protein) AAPPGEYFSVGSQVSCRTCQEQRLQGEVVAFDYQSKMLALKCPSSSGKPNHADILLINLQYVSEVEIINDRTETPPPLASLNVSKLASKARTEKEEKLSQAYAISAGVSLEGQQLFQTIHKTIKDCKWQEKNIVVMEEVVITPPYQVENCKGKEGSALSHVRKIVEKHFRDVESQKILQRSQAQQPQKEAALSS
9 | 7 | 8 | 8 | FUBP3 (protein) AELVQGQSAPVGMKAEGFVDALHRVRQIAAKIDSIPHLNNSTPLVDPSVYGYGVQKRPLDDGVGNQLGALVHQRTVITEEFKVPDKMVGFIIGRGGEQISRIQAESGCKIQIASESSGIPERPCVLTGTPESIEQAKRLLGQIVDRCRNGPGFHNDIDSNSTIQEILIPASKVGLVIGRGGETIKQLQERTGVKMVMIQDGPLPTGADKPLRITGDAFKVQQAREMVLEIIREKDQADFRGVRGDFNSRMGGGSIEVSVPRFAVGIVIGRNGEMIKKIQNDAGVRIQFKPDDGISPERAAQVMGPPDRCQHAAHIISELILTAQERDGFGGLAAARGRGRGRGDWSVGAPGGVQEITYTVPADKCGLVIGKGGENIKSINQQSGAHVELQRNPPPNSDPNLRRFTIRGVPQQIEVARQLIDEKVGGTNLGAPGAFGQSPFSQPPAPPHQNTFPPRSSGCFPNMAAKVNGNPHSTPVSGPPAFLTQGWGSTYQAWQQPTQQVPSQQSQPQSSQPNYSKAWEDYYKKQSHAASAAPQASSPPDYTMAWAEYYRQQVAFYGQTLGQAQAHSQEQ
22 | 16 | 16 | 18 | DDX5 (protein) MSGYSSDRDRGRDRGFGAPRFGGSRAGPLSGKKFGNPGEKLVKKKWNLDELPKFEKNFYQEHPDLARRTAQEVETYRRSKEITVRGHNCPKPVLNFYEANFPANVMDVIARQNFTEPTAIQAQGWPVALSGLDMVGVAQTGSGKTLSYLLPAIVHINHQPFLERGDGPICLVLAPTRELAQQVQQVAAEYCRACRLKSTCIYGGAPKGPQIRDLERGVEICIATPGRLIDFLECGKTNLRRTTYLVLDEADRMLDMGFEPQIRKIVDQIRPDRQTLMWSATWPKEVRQLAEDFLKDYIHINIGALELSANHNILQIVDVCHDVEKDEKLIRLMEEIMSEKENKTIVFVETKRRCDELTRKMRRDGWPAMGIHGDKSQQERDWVLNEFKHGKAPILIATDVASRGLDVEDVKFVINYDYPNSSEDYIHRIGRTARSTKTGTAYTFFTPNNIKQVSDLISVLREANQAINPKLLQLVEDRGSGRSRGRGGMKDDRRDRYSAGKRGGFNTFRDRENYDRGYSSLLKRDFGAKTQNGVYSAANYTNGSFGSNFVSAGIQTSFRTGNPTGTYQNGYDSTQQYGSNVPNMHNGMNQQAYAYPATAAAPMIGYPMPTGYSQ
